These results are taken from the supplement of paper PMC9112550, “Optimization of the antimicrobial peptide Bac7 by deep mutational scanning” (BMC Biology, 2022).

In this data set the test system is Escherichia coli TOP10. The experiment in a line: shrunken log2 fold change of peptide-encoding DNA abundance (4.5 h post-induction vs induction); higher = less antimicrobial activity (less host growth inhibition). As to conditions: time post-induction: 4.5 h; library: site-saturation at positions 5, 18, 19, 20.
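Note: peptides expressed intracellularly from a pBAD plasmid library in pooled LB shake-flask culture, induced with 0.3% L-arabinose, DNA abundance read by NGS, three biological replicates, DESeq2 with apeglm shrinkage.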

RRIRMRPPRLPRPRPRPAQIPRP: the “shrunken log2 fold change” value was -0.0435.

With RRIRTRPPRLPRPRPRPEENPRP, the “shrunken log2 fold change” value is -0.0317. The figure for RRIRYRPPRLPRPRPRPACMPRP is -0.0495. The figure for RRIRIRPPRLPRPRPRPTDQPRP is -0.51; for RRIRRRPPRLPRPRPRPKDHPRP it is 0.0887; for RRIRVRPPRLPRPRPRPIMCPRP it is 0.0128. The figure for RRIRPRPPRLPRPRPRPWQKPRP is -0.179; for RRIRPRPPRLPRPRPRPMMQPRP it is -0.369. For RRIRVRPPRLPRPRPRPCYIPRP, the “shrunken log2 fold change” value was -0.281. The figure for RRIRKRPPRLPRPRPRPFIDPRP is 0.0226; for RRIRHRPPRLPRPRPRPDRYPRP it is -0.236.

Take RRIRVRPPRLPRPRPRPWKGPRP: the “shrunken log2 fold change” value was found to be 0.103. The figure for RRIRWRPPRLPRPRPRPKMYPRP is -0.13. The figure for RRIRVRPPRLPRPRPRPEMIPRP is -0.0397. The figure for RRIRFRPPRLPRPRPRPRCNPRP is -0.0427; for RRIRCRPPRLPRPRPRPEASPRP it is 0.14. On to RRIRMRPPRLPRPRPRPNIAPRP, for which the “shrunken log2 fold change” value was 0.397. Consider RRIRMRPPRLPRPRPRPYMIPRP, for which the “shrunken log2 fold change” value is -0.00479. The figure for RRIRNRPPRLPRPRPRPGHFPRP is 0.0512.

Regarding RRIRFRPPRLPRPRPRPYKTPRP, the “shrunken log2 fold change” value is -0.166. In the case of RRIRGRPPRLPRPRPRPDQLPRP, the “shrunken log2 fold change” value was 0.719.

Consider RRIRIRPPRLPRPRPRPFPPPRP, for which the “shrunken log2 fold change” value is -0.353. The figure for RRIRPRPPRLPRPRPRPMYIPRP is -0.0479; for RRIRYRPPRLPRPRPRPDNCPRP it is -0.0299; for RRIRFRPPRLPRPRPRPRDIPRP it is -0.11. The figure for RRIRIRPPRLPRPRPRPKPNPRP is -0.105; for RRIRDRPPRLPRPRPRPHDEPRP it is 0.167; for RRIRIRPPRLPRPRPRPNCFPRP it is 0.00306. On to RRIRFRPPRLPRPRPRPDDSPRP, for which the “shrunken log2 fold change” value was -0.154.

For RRIRQRPPRLPRPRPRPLCTPRP, the “shrunken log2 fold change” value is -0.543. RRIRNRPPRLPRPRPRPSQAPRP: the “shrunken log2 fold change” value is 0.0297. The figure for RRIRSRPPRLPRPRPRPMQMPRP is 0.512; for RRIRLRPPRLPRPRPRPVVIPRP it is -0.0403. The figure for RRIRVRPPRLPRPRPRPFTAPRP is -0.317. The figure for RRIRVRPPRLPRPRPRPWLQPRP is -0.0274; for RRIRARPPRLPRPRPRPGLRPRP it is 0.331; for RRIRVRPPRLPRPRPRPFSWPRP it is -0.144. On to RRIRKRPPRLPRPRPRPGYTPRP, for which the “shrunken log2 fold change” value is -0.0679.

On to RRIRWRPPRLPRPRPRPKWVPRP, for which the “shrunken log2 fold change” value was -0.00843. Regarding RRIRRRPPRLPRPRPRPVGHPRP, the “shrunken log2 fold change” value is 0.0496. The figure for RRIRARPPRLPRPRPRPCHHPRP is -0.0114.

Consider RRIRMRPPRLPRPRPRPERCPRP, for which the “shrunken log2 fold change” value was found to be 0.201. The figure for RRIRTRPPRLPRPRPRPEKSPRP is 0.288. The figure for RRIRLRPPRLPRPRPRPKMSPRP is -0.0245; for RRIRARPPRLPRPRPRPACTPRP it is 0.668.

For the sequence RRIRKRPPRLPRPRPRPTWCPRP, the “shrunken log2 fold change” value was 0.263.

For RRIRMRPPRLPRPRPRPFCAPRP, the “shrunken log2 fold change” value amounted to 0.358. The figure for RRIRIRPPRLPRPRPRPCGHPRP is 0.00489; for RRIRHRPPRLPRPRPRPFHDPRP it is -0.152; for RRIRTRPPRLPRPRPRPCDHPRP it is -0.0753.

Turning to RRIRDRPPRLPRPRPRPWNHPRP, the “shrunken log2 fold change” value was -0.00185.

For the sequence RRIRVRPPRLPRPRPRPKPYPRP, the “shrunken log2 fold change” value came to 0.0131. The figure for RRIRRRPPRLPRPRPRPCAGPRP is 0.357; for RRIRARPPRLPRPRPRPQAWPRP it is 0.376; for RRIRPRPPRLPRPRPRPQMPPRP it is -0.451. The figure for RRIRWRPPRLPRPRPRPGVGPRP is 1.27; for RRIRYRPPRLPRPRPRPLAGPRP it is 0.0192; for RRIRGRPPRLPRPRPRPIRHPRP it is 0.0519. The figure for RRIRRRPPRLPRPRPRPGIVPRP is -0.0478. Regarding RRIRTRPPRLPRPRPRPAWTPRP, the “shrunken log2 fold change” value amounted to 0.101. The figure for RRIRHRPPRLPRPRPRPPQTPRP is -0.00347; for RRIRNRPPRLPRPRPRPLDGPRP it is -0.0308. The figure for RRIRERPPRLPRPRPRPHAYPRP is -0.352. The figure for RRIRNRPPRLPRPRPRPAPPPRP is 0.584. For RRIRCRPPRLPRPRPRPAPEPRP, the “shrunken log2 fold change” value was 0.766. The figure for RRIRHRPPRLPRPRPRPEQWPRP is 0.0101.

Take RRIRHRPPRLPRPRPRPIGAPRP: the “shrunken log2 fold change” value is 0.173. The figure for RRIRYRPPRLPRPRPRPPSCPRP is -0.00175. The figure for RRIRHRPPRLPRPRPRPKQTPRP is 0.179; for RRIRTRPPRLPRPRPRPHDNPRP it is -0.574; for RRIRHRPPRLPRPRPRPLINPRP it is -0.201. The figure for RRIRRRPPRLPRPRPRPGVNPRP is -0.271. As to RRIRWRPPRLPRPRPRPAPLPRP, the “shrunken log2 fold change” value was found to be 0.512. The figure for RRIRHRPPRLPRPRPRPLFVPRP is -0.471; for RRIRKRPPRLPRPRPRPMWCPRP it is -0.113; for RRIRDRPPRLPRPRPRPNFQPRP it is 0.151.

On to RRIRVRPPRLPRPRPRPDSEPRP, for which the “shrunken log2 fold change” value was -0.105. The figure for RRIRNRPPRLPRPRPRPVKSPRP is 0.00699.

With RRIRFRPPRLPRPRPRPHNYPRP, the “shrunken log2 fold change” value is -0.633. The figure for RRIRLRPPRLPRPRPRPDNCPRP is -0.0891; for RRIRSRPPRLPRPRPRPHEVPRP it is -0.0564; for RRIRQRPPRLPRPRPRPILNPRP it is -0.098. The figure for RRIRRRPPRLPRPRPRPFPLPRP is 0.49; for RRIRNRPPRLPRPRPRPRLKPRP it is -0.00493.

On to RRIRHRPPRLPRPRPRPVTAPRP, for which the “shrunken log2 fold change” value came out at 0.0123. The figure for RRIRGRPPRLPRPRPRPVNHPRP is 0.301; for RRIRWRPPRLPRPRPRPKFFPRP it is 0.00459; for RRIRHRPPRLPRPRPRPKHCPRP it is -0.447. The figure for RRIRSRPPRLPRPRPRPSHKPRP is -0.658.

Take RRIRHRPPRLPRPRPRPQAKPRP: the “shrunken log2 fold change” value is -0.016. The figure for RRIRSRPPRLPRPRPRPLSFPRP is -0.24.
